# Test results published in patent publication US12099068B2, “Biomarkers for graft-versus-host disease” (Incyte Corporation, priority 2018, dated 2024).
# Test system: plasma proteins
# Assay: Plasma proteins modulated between baseline and day 28 in responders (CR, VGPR, PR; n = 19), Example 6 (Table 13)
# Format: in vivo, human
# Settings: plasma protein (OLINK NPX); responders (CR, VGPR, PR; n = 19); itacitinib 200 mg or 300 mg QD with corticosteroids; day 28 vs baseline
# Procedure: Due to the limited sample size, steroid-naive (N=10) and steroid-refractory (N=18) patients were combined for further analysis. Broad proteomic analysis of over 1000 proteins was conducted by OLINK Proteomics (Watertown, MA) using a proximity extension assay as described by the manufacturer. Data are presented as normalized protein expression (NPX) in log 2 scale. Statistical differences were evaluated using unpaired and paired t tests, one-way […] (ANOVA), and Pearson Correlation. Significance was conferred when P<0.05.
# Longitudinal differences in protein expression were analyzed by evaluating plasma samples from baseline/screening and day 28.
Molecule,"Fold Change, Decreased Expression from Baseline to Day 28","Fold Change, Increased Expression from Baseline to Day 28"
"ANG-1 (protein, UniProt Q15389 16-498, looked up) Angiopoietin-1: HIGCSNQRRSPENSGRRYNRIQHGQCAYTFILPEHDGNCRESTTDQYNTNALQRDAPHVEPDFSSQKLQHLEHVMENYTQWLQKLENYIVENMKSEMAQIQQNAVQNHTATMLEIGTSLLSQTAEQTRKLTDVETQVLNQTSRLEIQLLENSLSTYKLEKQLLQQTNEILKIHEKNSLLEHKILEMEGKHKEELDTLKEEKENLQGLVTRQTYIIQELEKQLNRATTNNSVLQKQQLELMDTVHNLVNLCTKEGVLLKGGKREEEKPFRDCADVYQAGFNKSGIYTIYINNMPEPKKVFCNMDVNGGGWTVIQHREDGSLDFQRGWKEYKMGFGNPSGEYWLGNEFIFAITSQRQYMLRIELMDWEGNRAYSQYDRFHIGNEKQNYRLYLKGHTGTAGKQSSLILHGADFSTKDADNDNCMCKCALMLTGGWWFDACGPSNLNGMFYTAGQNHGKLNGIKWHYFKGPSYSLRSTTMMIRPLDF",−1.7898,
"PPP1R2 (protein, UniProt P41236 2-205, looked up) Protein phosphatase inhibitor …: AASTASHRPIKGILKNKTSTTSSMVASAEQPRGNVDEELSKKSQKWDEMNILATYHPADKDYGLMKIDEPSTPYHSMMGDDEDACSDTEATEAMAPDILARKLAAAEGLEPKYRIQEQESSGEEDSDLSPEEREKKRQFEMKRKLHYNEGLNIKLARQLISKDLHDDDEDEEMLETADGESMNTEESNQGSTPSDQQQNKLRSS",−1.3339,
"CCL5 (protein, UniProt P13501 24-91, looked up) C-C motif chemokine 5: SPYSSDTTPCCFAYIARPLPRAHIKEYFYTSGKCSNPAVVFVTRKNRQVCANPEKKWVREYINSLEMS",−1.6357,
"CRKL (protein, UniProt P46109 1-303, looked up) Crk-like protein: MSSARFDSSDRSAWYMGPVSRQEAQTRLQGQRHGMFLVRDSSTCPGDYVLSVSENSRVSHYIINSLPNRRFKIGDQEFDHLPALLEFYKIHYLDTTTLIEPAPRYPSPPMGSVSAPNLPTAEDNLEYVRTLYDFPGNDAEDLPFKKGEILVIIEKPEEQWWSARNKDGRVGMIPVPYVEKLVRSSPHGKHGNRNSNSYGIPEPAHAYAQPQTTTPLPAVSGSPGAAITPLPSTQNGPVFAKAIQKRVPCAYDKTALALEVGDIVKVTRMNINGQWEGEVNGRKGLFPFTHVKIFDPQNPDENE",−1.8003,
"SLAMF8 (protein, UniProt Q9P0V8 23-285, looked up) SLAM family member 8: AQVLSKVGGSVLLVAARPPGFQVREAIWRSLWPSEELLATFFRGSLETLYHSRFLGRAQLHSNLSLELGPLESGDSGNFSVLMVDTRGQPWTQTLQLKVYDAVPRPVVQVFIAVERDAQPSKTCQVFLSCWAPNISEITYSWRRETTMDFGMEPHSLFTDGQVLSISLGPGDRDVAYSCIVSNPVSWDLATVTPWDSCHHEAAPGKASYKDVLLVVVPVSLLLMLVTLFSAWHWCPCSGKKKKDVHADRVGPETENPLVQDLP",−1.492,
"STX6 (protein, UniProt O43752 2-255, looked up) Syntaxin-6: SMEDPFFVVKGEVQKAVNTAQGLFQRWTELLQDPSTATREEIDWTTNELRNNLRSIEWDLEDLDETISIVEANPRKFNLDATELSIRKAFITSTRQVVRDMKDQMSTSSVQALAERKNRQALLGDSGSQNWSTGTTDKYGRLDRELQRANSHFIEEQQAQQQLIVEQQDEQLELVSGSIGVLKNMSQRIGGELEEQAVMLEDFSHELESTQSRLDNVMKKLAKVSHMTSDRRQWCAIAILFAVLLVVLILFLVL",−1.4715,
"PILRA (protein, UniProt Q9UKJ1 20-303, looked up) Paired immunoglobulin-like …: QPSGSTGSGPSYLYGVTQPKHLSASMGGSVEIPFSFYYPWELATAPDVRISWRRGHFHRQSFYSTRPPSIHKDYVNRLFLNWTEGQKSGFLRISNLQKQDQSVYFCRVELDTRSSGRQQWQSIEGTKLSITQAVTTTTQRPSSMTTTWRLSSTTTTTGLRVTQGKRRSDSWHISLETAVGVAVAVTVLGIMILGLICLLRWRRRKGQQRTKATTPAREPFQNTEEPYENIRNEGQNTDPKLNPKDDGIVYASLALSSSTSPRAPPSHRPLKSPQNETLYSVLKA",−1.2582,
"CLEC7A (protein, UniProt Q9BXN2 1-247, looked up) C-type lectin domain family 7 …: MEYHPDLENLDEDGYTQLHFDSQSNTRIAVVSEKGSCAASPPWRLIAVILGILCLVILVIAVVLGTMAIWRSNSGSNTLENGYFLSRNKENHSQPTQSSLEDSVTPTKAVKTTGVLSSPCPPNWIIYEKSCYLFSMSLNSWDGSKRQCWQLGSNLLKIDSSNELGFIVKQVSSQPDNSFWIGLSRPQTEVPWLWEDGSTFSSNLFQIRTTATQENPSPNCVWIHVSVIYDQLCSVPSYSICEKKFSM",−1.8103,
"MAP2K6 (protein, UniProt P52564 1-334, looked up) Dual specificity …: MSQSKGKKRNPGLKIPKEAFEQPQTSSTPPRDLDSKACISIGNQNFEVKADDLEPIMELGRGAYGVVEKMRHVPSGQIMAVKRIRATVNSQEQKRLLMDLDISMRTVDCPFTVTFYGALFREGDVWICMELMDTSLDKFYKQVIDKGQTIPEDILGKIAVSIVKALEHLHSKLSVIHRDVKPSNVLINALGQVKMCDFGISGYLVDSVAKTIDAGCKPYMAPERINPELNQKGYSVKSDIWSLGITMIELAILRFPYDSWGTPFQQLKQVVEEPSPQLPADKFSAEFVDFTSQCLKKNSKERPTYPELMQHPFFTLHESKGTDVASFVKLILGD",−1.8184,
"STX16 (protein, UniProt O14662 1-325, looked up) Syntaxin-16: MATRRLTDAFLLLRNNSIQNRQLLAEQVSSHITSSPLHSRSIAAELDELADDRMALVSGISLDPEAAIGVTKRPPPKWVDGVDEIQYDVGRIKQKMKELASLHDKHLNRPTLDDSSEEEHAIEITTQEITQLFHRCQRAVQALPSRARACSEQEGRLLGNVVASLAQALQELSTSFRHAQSGYLKRMKNREERSQHFFDTSVPLMDDGDDNTLYHRGFTEDQLVLVEQNTLMVEEREREIRQIVQSISDLNEIFRDLGAMIVEQGTVLDRIDYNVEQSCIKTEDGLKQLHKAEQYQKKNRKMLVILILFVIIIVLIVVLVGVKSR",−1.4673,
"DFFA (protein, UniProt O00273 1-331, looked up) DNA fragmentation factor …: MEVTGDAGVPESGEIRTLKPCLLRRNYSREQHGVAASCLEDLRSKACDILAIDKSLTPVTLVLAEDGTIVDDDDYFLCLPSNTKFVALASNEKWAYNNSDGGTAWISQESFDVDETDSGAGLKWKNVARQLKEDLSSIILLSEEDLQMLVDAPCSDLAQELRQSCATVQRLQHTLQQVLDQREEVRQSKQLLQLYLQALEKEGSLLSKQEESKAAFGEEVDAVDTGISRETSSDVALASHILTALREKQAPELSLSSQDLELVTKEDPKALAVALNWDIKKTETVQEACERELALRLQQTQSLHSLRSISASKASPPGDLQNPKRARQDPT",−1.31,
"FAM3B (protein, UniProt P58499 30-235, looked up) Protein FAM3B: ELIPDAPLSSAAYSIRSIGERPVLKAPVPKRQKCDHWTPCPSDTYAYRLLSGGGRSKYAKICFEDNLLMGEQLGNVARGINIAIVNYVTGNVTATRCFDMYEGDNSGPMTKFIQSAAPKSLLFMVTYDDGSTRLNNDAKNAIEALGSKEIRNMKFRSSWVFIAAKGLELPSEIQREKINHSDAKNNRYSGWPAEIQIEGCIPKERS",,1.7951
"SCAMP3 (protein, UniProt O14828 1-347, looked up) Secretory carrier-associated …: MAQSRDGGNPFAEPSELDNPFQDPAVIQHRPSRQYATLDVYNPFETREPPPAYEPPAPAPLPPPSAPSLQPSRKLSPTEPKNYGSYSTQASAAAATAELLKKQEELNRKAEELDRRERELQHAALGGTATRQNNWPPLPSFCPVQPCFFQDISMEIPQEFQKTVSTMYYLWMCSTLALLLNFLACLASFCVETNNGAGFGLSILWVLLFTPCSFVCWYRPMYKAFRSDSSFNFFVFFFIFFVQDVLFVLQAIGIPGWGFSGWISALVVPKGNTAVSVLMLLVALLFTGIAVLGIVMLKRIHSLYRRTGASFQKAQQEFAAGVFSNPAVRTAAANAAAGAAENAFRAP",−1.7405,
"SMOC2 (protein, UniProt Q9H3U7 22-446, looked up) SPARC-related modular …: QKFSALTFLRVDQDKDKDCSLDCAGSPQKPLCASDGRTFLSRCEFQRAKCKDPQLEIAYRGNCKDVSRCVAERKYTQEQARKEFQQVFIPECNDDGTYSQVQCHSYTGYCWCVTPNGRPISGTAVAHKTPRCPGSVNEKLPQREGTGKTDDAAAPALETQPQGDEEDIASRYPTLWTEQVKSRQNKTNKNSVSSCDQEHQSALEEAKQPKNDNVVIPECAHGGLYKPVQCHPSTGYCWCVLVDTGRPIPGTSTRYEQPKCDNTARAHPAKARDLYKGRQLQGCPGAKKHEFLTSVLDALSTDMVHAASDPSSSSGRLSEPDPSHTLEERVVHWYFKLLDKNSSGDIGKKEIKPFKRFLRKKSKPKKCVKKFVEYCDVNNDKSISVQELMGCLGVAKEDGKADTKKRHTPRGHAESTSNRQPRKQG",,1.2842
"IRAK1 (protein, UniProt P51617 1-712, looked up) Interleukin-1 …: MAGGPGPGEPAAPGAQHFLYEVPPWVMCRFYKVMDALEPADWCQFAALIVRDQTELRLCERSGQRTASVLWPWINRNARVADLVHILTHLQLLRARDIITAWHPPAPLPSPGTTAPRPSSIPAPAEAEAWSPRKLPSSASTFLSPAFPGSQTHSGPELGLVPSPASLWPPPPSPAPSSTKPGPESSVSLLQGARPFPFCWPLCEISRGTHNFSEELKIGEGGFGCVYRAVMRNTVYAVKRLKENADLEWTAVKQSFLTEVEQLSRFRHPNIVDFAGYCAQNGFYCLVYGFLPNGSLEDRLHCQTQACPPLSWPQRLDILLGTARAIQFLHQDSPSLIHGDIKSSNVLLDERLTPKLGDFGLARFSRFAGSSPSQSSMVARTQTVRGTLAYLPEEYIKTGRLAVDTDTFSFGVVVLETLAGQRAVKTHGARTKYLKDLVEEEAEEAGVALRSTQSTLQAGLAADAWAAPIAMQIYKKHLDPRPGPCPPELGLGLGQLACCCLHRRAKRRPPMTQVYERLEKLQAVVAGVPGHSEAASCIPPSPQENSYVSSTGRAHSGAAPWQPLAAPSGASAQAAEQLQRGPNQPVESDESLGGLSAALRSWHLTPSCPLDPAPLREAGCPQGDTAGESSWGSGPGSRPTAVEGLALGSSASSSSEPPQIIINPARQKMVQKLALYEDGALDSLQLLSSSSLPGLGLEQDRQGPEESDEFQS",−1.2986,
